Data taken from paper doi:10.1101/2024.05.08.593097.
Where two headings read alike, the source gives them in different places.

Columns and labels:
[1] = molecular target: R358E/K361E-CCaCalpL (Candidatus Cloacimonas acidaminovorans strain Evry)
[2] = molecular target: T1, CalpL (CCaCalpL, SAVED-Lon protease) (Candidatus Cloacimonas acidaminovorans, UniProt B0VHB4 1-506); assay: cryo-EM structure
T1 sequence: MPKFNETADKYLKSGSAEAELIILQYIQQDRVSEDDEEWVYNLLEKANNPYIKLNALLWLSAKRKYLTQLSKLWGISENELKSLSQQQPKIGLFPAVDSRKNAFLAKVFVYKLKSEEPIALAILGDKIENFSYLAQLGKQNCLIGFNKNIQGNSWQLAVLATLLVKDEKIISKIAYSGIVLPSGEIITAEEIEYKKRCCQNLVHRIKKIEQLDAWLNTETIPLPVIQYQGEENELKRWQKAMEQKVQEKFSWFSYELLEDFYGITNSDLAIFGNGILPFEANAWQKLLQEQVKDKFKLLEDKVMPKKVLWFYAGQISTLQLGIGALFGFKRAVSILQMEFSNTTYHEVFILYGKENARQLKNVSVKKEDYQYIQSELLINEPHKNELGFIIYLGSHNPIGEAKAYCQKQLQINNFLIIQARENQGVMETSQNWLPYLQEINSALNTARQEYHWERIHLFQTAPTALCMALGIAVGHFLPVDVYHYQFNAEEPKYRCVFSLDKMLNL

[3] = molecular target: T1, CalpL (CCaCalpL, SAVED-Lon protease); assay: cryo-EM structure; remark: listed apart in the source
[4] = molecular target: T1, CalpL (CCaCalpL, SAVED-Lon protease); assay: cryo-EM structure; remark: listed apart in the source

R358E/K361E-CCaCalpL (enzyme)
ring nuclease activity (cA4 cleavage), reduction against wt-CCaCalpL [1]: > 100 fold

AAAA (structured_RNA, cyclic tetra-adenylate, 3'-5' linked ring closed by phosphodiester) [cA4]
binding result [2]: binds

AAAA (ssRNA, 2',3'-cyclic phosphate at 3' end) [A4>p]
binding result [3]: binds

AAAA (ssRNA, 3'-phosphate) [A4p]
binding result [4]: binds
